For this series, the target named is T1, CodY (6His-CodY) (Streptococcus suis serotype 2 (strain SC19?)) (UniProt A0A0H3MTH0).
T1 sequence: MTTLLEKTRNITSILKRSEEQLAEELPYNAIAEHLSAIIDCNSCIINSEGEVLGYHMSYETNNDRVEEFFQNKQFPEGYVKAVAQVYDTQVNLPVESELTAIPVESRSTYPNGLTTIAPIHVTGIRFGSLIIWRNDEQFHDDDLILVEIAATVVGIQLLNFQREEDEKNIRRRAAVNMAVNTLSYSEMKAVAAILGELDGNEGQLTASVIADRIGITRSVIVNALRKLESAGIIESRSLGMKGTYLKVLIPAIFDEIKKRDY
Description: EMSA. Particulars: EMSA: 1 ug PCR product with 0-2200 ng CodY in binding buffer (Beyotime; composition, pH and salt not given), 30 min at 37 C, native PAGE, ethidium bromide …. Background: In EMSA bound probe runs differently from free probe, usually more slowly.
In the case of “AATACAAGCGACGATTCCCTTCGTTGCGATCGGGCTTAATCAAGCCTTGATCTTCATAGTAACGAATTTGACGAGCAGTTAAATCTGTCAACTTCATCACACTACCGATCGGAAAGATAGCTAAGGAACGACGAAACTCTTTTTCTCTCATAATGAACTCCTTTCTGCCTACCATTATAGGAGAATTTTTTTTTGAGGTCAATAGGTGATGTTATATTTTATAACATCATTTATCCTGAAAACGTTTTTTTATAACATTCACATCATAATTAACTAGAATCGCAATGAAAACTCC (double strand) [glnR promoter]”, the binding entry is recorded as “binds”. For the sequence “ATCTCGGTCTTTGGTTGTTTGGCTTTACAGCTCTATACTTTGTGGCAGCTTATCTGATTGCCCTCAATCCATCTCAAATCTTAAATAGTATCGGACGTATTTTAACCCCTGTTTTTGCGATTTTGATTGTGATTTTGGTGGTGCTTGGTATTGTTAAGTACGGATCAACAAGTCCGTTACCAGCTTCGGAAGCTTACTCAGCAGGACAGGCATTTGGTACAGGATTTATCGAGGGATACAATACACTCGACGCACTTGCTTCTATTGCTTTTAGTGTCGTAGCAGTAAATACCT (double strand) [bap2 promoter]”, the binding entry is reported as “binds”. For the sequence “GGACGTATGCGCCTCTGCTTATGCCAGAAGTCATGAGGTAAATCTCCCTAAAAATTGGGTAGAAAAGCAGATTAAACTTCCACCAATCTATTGAAGATCGTGTGAAGAAGCAGGCTTTAGAAGCAACAAGCCCTGAGACTATTCGAAAGAAATCTAGGGCTATTTTTTCTAATCGGCTATCAGAAGTGAAGTAGCGATCTTTATTAGTGTTCTTTTACTACTTAAGGAAAACCAAGCTGCTCCCTCAAGACTTTATGGGAGCGATTTACAGTCATTT (double strand) [neuB (neu) promoter]”, the binding entry is reported as “no binding”. In the case of “TCTGTATTTATCATTGTAGTCCTATCTGCAACAGTAGAAAATTATATTGTAAATTTAAGTTTTGTATTTATGCCAATATGTTTTTGTTTATTAAATTCTATATCTACTATGGAATCAACTATTAACAAACAACTGCAAACATAAATTGGCAGGAATAGAGTTTTGAGTTGCTATTAATTTGGTAGAGCATATGTTCTATAGGTGGCAAGATAGAAGATAGTATTTTTTACATGATGATTTTTATGATAGCA (double strand) [cps2J promoter]”, the binding result is listed as “binds”.

The values above are taken from paper PMC4756307.
